Measurements from the RNAGym collection of RNA variant scans (doi:10.7554/elife.80360).

B1: HDV Ribozyme (parent)
chain: GGCCGGCAUGGUCCCAGCCUCCUCGCUGGCGCCGGCUGGGCAACAUUCCGAGGGGACCGUCCCCUCGGUAAUGGCGAAUGGGACCCA
B2: Hairpin Ribozyme (parent)
chain: GUCCUCUUUCACGUGCGCGUGAAAGAGAGAAGUGAACCAGAGAAACACACGUUGUGGUAUAUUACCUGGUA

Variants of: B1
Assay: self-cleavage, relative activity (ratio to wild type); higher = more cleavage; co-transcriptional

In order of falling self-cleavage:
1. G76A A87U  1.08
2. G76U U79A  0.984
3. A77G A87G  0.966
4. G76U A77U  0.868
5. G74U G76C  0.831
6. A78G C86G  0.806
7. G74U G76U  0.794
8. C85G A87U  0.785
9. C84A A87C  0.758
10. A77G A87C  0.735
11. G81U C86A  0.652
12. G76C U79A  0.649
13. G76C U79C  0.643
14. G74U C85G  0.617
15. G76C U79G  0.617
16. G74U  0.569
17. G82C C86A  0.527
18. A77U C84U  0.489
19. G74U C86G  0.485
20. G74A  0.478
21. G76C G81U  0.475
22. G82A A83C  0.451
23. U79G C85A  0.415
24. G81A  0.403
25. U79C C85A  0.389
26. A78U U79C  0.375
27. C75U A77U  0.374
28. G81U  0.365
29. G73U C86G  0.354
30. A83C A87U  0.346
31. G74U A77U  0.346
32. G74A A77G  0.332
33. U79C C85G  0.287
34. G81C  0.268
35. U79A C84G  0.256
36. G74A G82C  0.249
37. G81A C84G  0.237
38. A78G U79C  0.225
39. C75A C86A  0.219
40. C75G A77U  0.213
41. G74C  0.213
42. G82A A83G  0.156
43. U79A G80U  0.148
44. A78U U79G  0.138
45. G74U C75G  0.13
46. C75G A77C  0.128
47. A78U G80A  0.111
48. G74C C84G  0.0875
49. C75G A77G  0.0755
50. G81C G82A  0.0665
51. G74A G82A  0.0656

Variants of: B2
Assay: as above

In order of rising self-cleavage:
1. G1A U55G  0.0224
2. G1A U62G  0.0492
3. G1A A28U  0.0496
4. G1C A43C  0.0543
5. G1C A35C  0.0578
6. G1A A61U  0.0641
7. G1C G19C  0.0663
8. G1C C66G  0.0728
9. G1A C37A  0.0752
10. G1A U53C  0.0768
11. G1A U70G  0.0827
12. G1C A47C  0.0859
13. G1C C48G  0.086
14. G1C A30U  0.0862
15. G1A U53G  0.0863
16. G1C C16A  0.0908
17. G1A A11G  0.0942
18. G1A G15U  0.0969
19. G1A A64C  0.0979
20. G1A G25U  0.102
21. G1A A45U  0.106
22. G1C C38G  0.112
23. G1A C3A  0.115
24. G1A U67G  0.116
25. G1C G15C  0.117
26. G1A G21C  0.119
27. G1A G17C  0.12
28. G1A U53A  0.12
29. G1A G42A  0.122
30. G1A A23G  0.123
31. G1C C4A  0.126
32. G1A C66U  0.127
33. G1A U7A  0.127
34. G1A G19U  0.13
35. G1A A31C  0.132
36. G1A U62C  0.133
37. G1A A41C  0.134
38. G1A C50U  0.135
39. G1A C3U  0.136
40. G1A G69C  0.137
41. G1C C18U  0.139
42. G1A A11C  0.139
43. G1A U5G  0.14
44. G1A A35U  0.142
45. G1A A43C  0.144
46. G1A G27A  0.144
47. G1A U63A  0.146
48. G1A A26C  0.147
49. G1C C65G  0.148
50. G1A G27U  0.153
51. G1A A39U  0.154
52. G1A G29U  0.157
53. G1A G29A  0.157
54. G1A C38G  0.157
55. G1A A30U  0.159
56. G1C A49C  0.159
57. G1A A24G  0.159
58. G1A G13A  0.161
59. G1A C66A  0.164
60. G1A G69A  0.164
61. G1A U14C  0.166
62. G1A A44U  0.17
63. G1C A43U  0.171
64. G1A C16A  0.172
65. G1C C18A  0.177
66. G1A A24C  0.18
67. G1A U52C  0.181
68. G1C A64C  0.186
69. G1C A39U  0.187
70. G1C C48U  0.189
71. G1C A24U  0.19
72. G1A A24U  0.191
73. G1A U67A  0.193
74. G1C G19U  0.194
75. G1A U60G  0.194
76. G1A U14G  0.195
77. G1A G29C  0.196
78. G1A A28G  0.196
79. G1A A71U  0.196
80. G1C G27C  0.201
81. G1A G19A  0.203
82. G1A G19C  0.203
83. G1A C10G  0.207
84. G1A G15A  0.208
85. G1A A36C  0.215
86. G1A U58C  0.216
87. G1C A45U  0.217
88. G1A A23C  0.221
89. G1A A22G  0.223
90. G1A C46U  0.225
91. G1C C4U  0.228
92. G1C A41U  0.229
93. G1A U8A  0.232
94. G1C G15U  0.24
95. G1A G25A  0.245
96. G1C C3G  0.246
97. G1A U60C  0.248
98. G1C A49U  0.252
99. G1C A28C  0.262
100. G1A U8C  0.265
101. G1A C12U  0.266
102. G1A G51U  0.274
103. G1C A22C  0.274
104. G1C C38A  0.281
105. G1A A31U  0.284
106. G1C A31C  0.284
107. G1A U63G  0.284
108. G1C A44U  0.295
109. G1C C18G  0.307
110. G1A U7C  0.31
111. G1C A71G  0.313
112. G1C A49G  0.315
113. G1C G21C  0.378
114. G1C A41C  0.411
115. G1A A71C  0.435
116. G1A U2A  0.574
